Results taken from the Immune Epitope Database (IEDB).

Tests used:
Experiment in all cases: IEDB peptide-MHC binding, purified MHC/competitive/radioactivity; filed as Kd, often an IC50 or EC50 that approximates it; ≥ and ≤ were set here for values at or beyond the usual limits of such assays
Conditions in all cases: source organism: Plasmodium falciparum 3D7
HLA-A*02:01 = molecular target: HLA-A*02:01
HLA-A*02:02 = molecular target: HLA-A*02:02
HLA-A*02:03 = molecular target: HLA-A*02:03
HLA-A*02:06 = molecular target: HLA-A*02:06
HLA-A*68:02 = molecular target: HLA-A*68:02

Row | Sequence | Kd (HLA-A*02:01) [nM] | Kd (HLA-A*02:02) [nM] | Kd (HLA-A*02:03) [nM] | Kd (HLA-A*02:06) [nM] | Kd (HLA-A*68:02) [nM]
1 | YQDPQNYEL | 79 | 18 | 441 | 52 | ≥ 10000
2 | RLPVICSFLV | – | 2.5 | 33 | 19 | 9180
3 | NQMIFVSSI | 250 | 21 | 3.6 | 14 | 198
4 | VLFLQMMNV | 31 | 1.8 | 2.7 | 9.5 | 323
5 | FMNRFYITT | – | 18 | – | 996 | 6540
6 | FLVFLVFSNV | 269 | 212 | – | 232 | 5390
7 | LLNESNIFL | 43 | 2.5 | 24 | 143 | 4480
8 | VICSFLVFLV | – | 415 | 2920 | 197 | 1950
9 | ATYGIIVPV | 3.2 | 2 | 2.8 | 5 | 21
10 | RLFEESLGI | – | 1.9 | 5.5 | 68 | 418
11 | NILIVLYYL | ≥ 10000 | 1610 | 8780 | 1090 | ≥ 10000
